Measurements taken from the supplement of paper PMC12458215.
± gives the uncertainty stated by the source.

System: HEK293T
Assay: plasma membrane surface immunostaining intensity (anti-HA, deep receptor scanning) (arbitrary fluorescence units); higher = higher plasma membrane expression

Row | Sequence | plasma membrane surface immunostaining intensity (GPCR class: A (Olfactory)) | further results
1 | MKETRGYGGDAPFCTRLNHSYTGMWAPERSAEARGNLTRPPGSGEDCGSVSVAFPITMLLTGFVGNALAMLLVSRSYRRRESKRKKSFLLCIGWLALTDLVGQLLTTPVVIVVYLSKQRWEHIDPSGRLCTFFGLTMTVFGLSSLFIASAMAVERALAIRAPHWYASHMKTRATRAVLLGVWLAVLAFALLPVLGVGQYTVQWPGTWCFISTGRGGNGTSSSHNWGNLFFASAFAFLGLLALTVTFSCNLATIKALVSRCRAKATASQSSAQWGRITTETAIQLMGIMCVLSVCWSPLLIMMLKMIFNQTSVEHCKTHTEKQKECNFFLIAVRLASLNQILDPWVYLLLRKILLRKFCQIRYHTNNYASSSTSLPCQCSSTLMWSDHLER [PTGER3] |  | plasma membrane surface immunostaining intensity (GPCR class: A): 684 ± 110
2 | MEKLLRLCCWYSWLLLFYYNFQVRGVYSRSQDHPGFQVLASASHYWPLENVDGIHELQDTTGDIVEGKVNKGIYLKEEKGVTLLYYGRYNSSCISKPEQCGPEGVTFSFFWKTQGEQSRPIPSAYGGQVISNGFKVCSSGGRGSVELYTRDNSMTWEASFSPPGPYWTHVLFTWKSKEGLKVYVNGTLSTSDPSGKVSRDYGESNVNLVIGSEQDQAKCYENGAFDEFIIWERALTPDEIAMYFTAAIGKHALLSSTLPSLFMTSTASPVMPTDAYHPIITNLTEERKTFQSPGVILSYLQNVSLSLPSKSLSEQTALNLTKTFLKAVGEILLLPGWIALSEDSAVVLSLIDTIDTVMGHVSSNLHGSTPQVTVEGSSAMAEFSVAKILPKTVNSSHYRFPAHGQSFIQIPHEAFHRHAWSTVVGLLYHSMHYYLNNIWPAHTKIAEAMHHQDCLLFATSHLISLEVSPPPTLSQNLSGSPLITVHLKHRLTRKQHSEATNSSNRVFVYCAFLDFSSGEGVWSNHGCALTRGNLTYSVCRCTHLTNFAILMQVVPLELARGHQVALSSISYVGCSLSVLCLVATLVTFAVLSSVSTIRNQRYHIHANLSFAVLVAQVLLLISFRLEPGTTPCQVMAVLLHYFFLSAFAWMLVEGLHLYSMVIKVFGSEDSKHRYYYGMGWGFPLLICIISLSFAMDSYGTSNNCWLSLASGAIWAFVAPALFVIVVNIGILIAVTRVISQISADNYKIHGDPSAFKLTAKAVAVLLPILGTSWVFGVLAVNGCAVVFQYMFATLNSLQGLFIFLFHCLLNSEVRAAFKHKTKVWSLTSSSARTSNAKPFHSDLMNGTRPGMASTKLSPWDKSSHSAHRVDLSAV [ADGRD1] |  | plasma membrane surface immunostaining intensity (GPCR class: B): 1550 ± 390
3 | METPNTTEDYDTTTEFDYGDATPCQKVNERAFGAQLLPPLYSLVFVIGLVGNILVVLVLVQYKRLKNMTSIYLLNLAISDLLFLFTLPFWIDYKLKDDWVFGDAMCKILSGFYYTGLYSEIFFIILLTIDRYLAIVHAVFALRARTVTFGVITSIIIWALAILASMPGLYFSKTQWEFTHHTCSLHFPHESLREWKLFQALKLNLFGLVLPLLVMIICYTGIIKILLRRPNEKKSKAVRLIFVIMIIFFLFWTPYNLTILISVFQDFLFTHECEQSRHLDLAVQVTEVIAYTHCCVNPVIYAFVGERFRKYLRQLFHRRVAVHLVKWLPFLSVDRLERVSSTSPSTGEHELSAGF [CCR1] |  | plasma membrane surface immunostaining intensity (GPCR class: A): 5560 ± 180
4 | MLMKKNASFEDFFLLLGFSNWPHLEVVLFVVILIFYLITLIGNLFIIILSYLDSHLHTPMYFFLSNLSFLDLCYTTSSIPQLLVNLWGPEKTISYAGCTVQLYFVLALGTAECVLLVVMSYDRYAAVCRPLHYTVLMHPRFCRLLAAASWVSGFTTSALHSSFTFWIPLCRHRLVDHFFCEVPALLRLSCVDTQANELTLMVMSSIFVLIPLILILTSYGAIARAVLSMQSTTGLQKVLRTCGAHLMVVSLFFIPVMCMYLQPPSENSQDQGKFIALFYTVVTPSLNPLIYTFRNKDVRGAVKRLMGWEWGM [OR2J1] | 133 ± 36 | 
5 | MMGLTEGVFLILSGTQFTLGILVNCFIELVNGSSWFKTKRMSLSDFIITTLALLRIILLCIILTDSFLIEFSPNTHDSGIIMQIIDVSWTFTNHLSIWLATCLGVLYCLKIASFSHPTFLWLKWRVSRVMVWMLLGALLLSCGSTASLINEFKLYSVFRGIEATRNVTEHFRKKRSEYYLIHVLGTLWYLPPLIVSLASYSLLIFSLGRHTRQMLQNGTSSRDPTTEAHKRAIRIILSFFFLFLLYFLAFLIASFGNFLPKTKMAKMIGEVMTMFYPAGHSFILILGNSKLKQTFVVMLRCESGHLKPGSKGPIFS [TAS2R3] |  | plasma membrane surface immunostaining intensity (GPCR class: Taste): 135 ± 22
6 | MEPAPSAGAELQPPLFANASDAYPSACPSAGANASGPPGARSASSLALAIAITALYSAVCAVGLLGNVLVMFGIVRYTKMKTATNIYIFNLALADALATSTLPFQSAKYLMETWPFGELLCKAVLSIDYYNMFTSIFTLTMMSVDRYIAVCHPVKALDFRTPAKAKLINICIWVLASGVGVPIMVMAVTRPRDGAVVCMLQFPSPSWYWDTVTKICVFLFAFVVPILIITVCYGLMLLRLRSVRLLSGSKEKDRSLRRITRMVLVVVGAFVVCWAPIHIFVIVWTLVDIDRRDPLVVAALHLCIALGYANSSLNPVLYAFLDENFKRCFRQLCRKPCGRPDPSSFSRAREATARERVTACTPSDGPGGGAAA [OPRD1] |  | plasma membrane surface immunostaining intensity (GPCR class: A): 6220 ± 99
7 | MEAENLTELSKFLLLGLSDDPELQPVLFGLFLSMYLVTVLGNLLIILAVSSDSHLHTPMYFFLSNLSFVDICFISTTVPKMLVSIQARSKDISYMGCLTQVYFLMMFAGMDTFLLAVMAYDRFVAICHPLHYTVIMNPCLCGLLVLASWFIIFWFSLVHILLMKRLTFSTGTEIPHFFCEPAQVLKVACSNTLLNNIVLYVATALLGVFPVAGILFSYSQIVSSLMGMSSTKGKYKAFSTCGSHLCVVSLFYGTGLGVYLSSAVTHSSQSSSTASVMYAMVTPMLNPFIYSLRNKDVKGALERLLSRADSCP [OR7D4] | 157 ± 48 | 
8 | MSNASLLTAFILMGLPHAPALDAPLFGVFLVVYVLTVLGNLLILLVIRVDSHLHTTMYYFLTNLSFIDMWFSTVTVPKLLMTLVFPSGRAISFHSCMAQLYFFHFLGGTECFLYRVMSCDRYLAISYPLRYTSMMTGRSCTLLATSTWLSGSLHSAVQAILTFHLPYCGPNWIQHYLCDAPPILKLACADTSAIETVIFVTVGIVASGCFVLIVLSYVSIVCSILRIRTSEGKHRAFQTCASHCIVVLCFFGPGLFIYLRPGSRKAVDGVVAVFYTVLTPLLNPVVYTLRNKEVKKALLKLKDKVAHSQSK [OR10G8] | 114 ± 4.5 | 
9 | MANITRMANHTGRLDFILMGLFRQSKHPALLSVVIFVVFLKALSGNAVLILLIHCDAHLHSPMYFFISQLSLMDMAYISVTVPKMLLDQVMGVNKVSAPECGMQMFLYLTLAGSEFFLLATMAYDRYVAICHPLRYPVLMNHRVCLFLASGCWFLGSVDGFMLTPITMSFPFCRSWEIHHFFCEVPAVTILSCSDTSLYETLMYLCCVLMLLIPVTIISSSYLLILLTVHRMNSAEGRKKAFATCSSHLTVVILFYGAAVYTYMLPSSYHTPEKDMMVSVFYTILTPVLNPLIYSLRNKDVMGALKKMLTVRFVL [OR2T29] | 131 ± 21 | 
10 | MGMEGLLQNSTNFVLTGLITHPAFPGLLFAIVFSIFVVAITANLVMILLIHMDSRLHTPMYFLLSQLSIMDTIYICITVPKMLQDLLSKDKTISFLGCAVQIFLYLTLIGGEFFLLGLMAYDRYVAVCNPLRYPLLMNRRVCLFMVVGSWVGGSLDGFMLTPVTMSFPFCRSREINHFFCEIPAVLKLSCTDTSLYETLMYACCVLMLLIPLSVISVSYTHILLTVHRMNSAEGRRKAFATCSSHIMVVSVFYGAAFYTNVLPHSYHTPEKDKVVSAFYTILTPMLNPLIYSLRNKDVAAALRKVLGRCGSSQSIRVATVIRKG [OR2T2] | 130 ± 17 | 
11 | MTRKNYTSLTEFVLLGLADTLELQIILFLFFLVIYTLTVLGNLGMILLIRIDSQLHTPMYFFLANLSFVDVCNSTTITPKMLADLLSEKKTISFAGCFLQMYFFISLATTECILFGLMAYDRYAAICRPLLYSLIMSRTVYLKMAAGAFAAGLLNFMVNTSHVSSLSFCDSNVIHHFFCDSPPLFKLSCSDTILKESISSILAGVNIVGTLLVILSSYSYVLFSIFSMHSGEGRHRAFSTCASHLTAIILFYATCIYTYLRPSSSYSLNQDKVASVFYTVVIPMLNPLIYSLRSKEVKKALANVISRKRTSSFL [OR5F1] | 192 ± 87 | 
12 | MEIVSTGNETITEFVLLGFYDIPELHFLFFIVFTAVYVFIIIGNMLIIVAVVSSQRLHKPMYIFLANLSFLDILYTSAVMPKMLEGFLQEATISVAGCLLQFFIFGSLATAECLLLAVMAYDRYLAICYPLHYPLLMGPRRYMGLVVTTWLSGFVVDGLVVALVAQLRFCGPNHIDQFYCDFMLFVGLACSDPRVAQVTTLILSVFCLTIPFGLILTSYARIVVAVLRVPAGASRRRAFSTCSSHLAVVTTFYGTLMIFYVAPSAVHSQLLSKVFSLLYTVVTPLFNPVIYTMRNKEVHQALRKILCIKQTETLD [OR11A1] | 398 ± 120 | 
13 | MMIKKNASSEDFFILLGFSNWPQLEVVLFVVILIFYLMTLTGNLFIIILSYVDSHLHTPMYFFLSNLSFLDLCHTTSSIPQLLVNLRGPEKTISYAGCMVQLYFVLALGIAECVLLVVMSYDRYVAVCRPLHYTVLMHPRFCHLLAAASWVIGFTISALHSSFTFWVPLCGHRLVDHFFCEVPALLRLSCVDTHANELTLMVMSSIFVLIPLILILTAYGAIARAVLSMQSTTGLQKVFRTCGAHLMVVSLFFIPVMCMYLQPPSENSPDQGKFIALFYTVVTPSLNPLIYTLRNKHVKGAAKRLLGWEWGK [OR2J2] | 82.9 ± 16 | 
14 | MLLCTARLVGLQLLISCCWAFACHSTESSPDFTLPGDYLLAGLFPLHSGCLQVRHRPEVTLCDRSCSFNEHGYHLFQAMRLGVEEINNSTALLPNITLGYQLYDVCSDSANVYATLRVLSLPGQHHIELQGDLLHYSPTVLAVIGPDSTNRAATTAALLSPFLVPMISYAASSETLSVKRQYPSFLRTIPNDKYQVETMVLLLQKFGWTWISLVGSSDDYGQLGVQALENQATGQGICIAFKDIMPFSAQVGDERMQCLMRHLAQAGATVVVVFSSRQLARVFFESVVLTNLTGKVWVASEAWALSRHITGVPGIQRIGMVLGVAIQKRAVPGLKAFEEAYARADKKAPRPCHKGSWCSSNQLCRECQAFMAHTMPKLKAFSMSSAYNAYRAVYAVAHGLHQLLGCASGACSRGRVYPWQLLEQIHKVHFLLHKDTVAFNDNRDPLSSYNIIAWDWNGPKWTFTVLGSSTWSPVQLNINETKIQWHGKDNQVPKSVCSSDCLEGHQRVVTGFHHCCFECVPCGAGTFLNKSDLYRCQPCGKEEWAPEGSQTCFPRTVVFLALREHTSWVLLAANTLLLLLLLGTAGLFAWHLDTPVVRSAGGRLCFLMLGSLAAGSGSLYGFFGEPTRPACLLRQALFALGFTIFLSCLTVRSFQLIIIFKFSTKVPTFYHAWVQNHGAGLFVMISSAAQLLICLTWLVVWTPLPAREYQRFPHLVMLECTETNSLGFILAFLYNGLLSISAFACSYLGKDLPENYNEAKCVTFSLLFNFVSWIAFFTTASVYDGKYLPAANMMAGLSSLSSGFGGYFLPKCYVILCRPDLNSTEHFQASIQDYTRRCGST [TAS1R1] |  | plasma membrane surface immunostaining intensity (GPCR class: Taste): 124 ± 5.5
15 | MDPTISTLDTELTPINGTEETLCYKQTLSLTVLTCIVSLVGLTGNAVVLWLLGCRMRRNAFSIYILNLAAADFLFLSGRLIYSLLSFISIPHTISKILYPVMMFSYFAGLSFLSAVSTERCLSVLWPIWYRCHRPTHLSAVVCVLLWALSLLRSILEWMLCGFLFSGADSAWCQTSDFITVAWLIFLCVVLCGSSLVLLIRILCGSRKIPLTRLYVTILLTVLVFLLCGLPFGIQFFLFLWIHVDREVLFCHVHLVSIFLSALNSSANPIIYFFVGSFRQRQNRQNLKLVLQRALQDASEVDEGGGQLPEEILELSGSRLEQ [MRGPRX1] |  | plasma membrane surface immunostaining intensity (GPCR class: A): 6278 ± 45
